According to US20120283184A1 (published 2012):
Changes are numbered by the printed parent chain.

B1: 2′E4-PR4 (designed binder)
chain: VSDVPRDLEVVAATPTSLLISWRHPHFPTRYYRITYGETGGNSPVQEFTVPLQPPTATISGLKPGVDYTITVYAVTVHWNGHELMTPISINYRT
B2: 2′H4-PR4 (designed binder)
chain: B1 chain with H78G, W79P, G81E, H82R, E83M
B3: 2′C6-PR4 (designed binder)
chain: B1 chain with V77M, H78G, W79F, N80M, G81A, T86V
B4: 2′D6-PR4 (designed binder)
chain: B1 chain with H78T, W79H, E83P
B5: 4H5 PR3 (designed binder)
chain: EVVAATPTSLLISWRHPHFPTRYYRITYGETGGNSPVQEFTVPLQPPTATISGLKPGVDYTITVYAVTVAQNGHELITPISINYRT
B6: 3D4 PR3 (designed binder)
chain: B5 chain with A70G, Q71W, G73D
notes: in vitro translated
B7: 3′E8 PR4 (designed binder)
chain: B5 chain with G73D, H74R, E75Q, I77F
notes: in vitro translated
B8: 3E6 PR3 (designed binder)
chain: B5 chain with A70P, P79M
notes: in vitro translated
B9: 4′B7 PR4 (designed binder)
chain: B5 chain with G73N, I77L
B10: 1′DelG11 PR4 (designed binder)
chain: B5 chain with V69L, E75V
notes: in vitro translated
B11: 3D11 PR3 (designed binder)
chain: B5 chain with V69L, A70G, N72E, G73N, H74Q
notes: in vitro translated
B12: 4′E7 PR4 (designed binder)
chain: B5 chain with V69W, G73D, I77L
B13: 4A4 PR3 (designed binder)
chain: B5 chain with G73D, I77F
notes: in vitro translated
B14: 1′DelB10 PR4 (designed binder)
chain: B5 chain with Q71R, G73D, I77M
notes: in vitro translated
B15: 3′E4 PR4 (designed binder)
chain: B5 chain with A70G, Q71P, G73D, H74R, T78V
notes: in vitro translated
B16: 1′DelA4 PR4 (designed binder)
chain: B5 chain with V64G, G73D, I77F
notes: in vitro translated
B17: 4′B11 PR4 (designed binder)
chain: B5 chain with V69M, Q71H, G73D, I77L
B18: 4′H12 PR4 (designed binder)
chain: B5 chain with Q71H, G73D, I77L
B19: 1′DelD3 PR4 (designed binder)
chain: B5 chain with V69L, G73N
notes: in vitro translated
B20: 3F5 PR3 (designed binder)
chain: B5 chain with Q71Y, G73E, I77Y
notes: in vitro translated
B21: 4′H5 PR4 (designed binder)
chain: B5 chain with V69L, I77F
B22: 3A8 PR3 (designed binder)
chain: B5 chain with V69E, Q71H, N72H, I77M, T78I
notes: in vitro translated
B23: 4′C9 PR4 (designed binder)
chain: B5 chain with V69L, A70G, Q71P, G73D, I77M
B24: 1′DelH7 PR4 (designed binder)
chain: B5 chain with A70G, G73D, H74Q, I77L
notes: in vitro translated
B25: 2′DelB9 PR4 (designed binder)
chain: B5 chain with A70G, Q71P, N72T, G73D, I77L
notes: in vitro translated
B26: 3C5 PR3 (designed binder)
chain: B5 chain with V69G, A70D, Q71H, G73D, H74R, I77M
notes: in vitro translated
B27: 1′DelC5 PR4 (designed binder)
chain: B5 chain with V69L, G73D, L76I, I77M
notes: in vitro translated
B28: 3F4 PR3 (designed binder)
chain: B5 chain with V69M, A70G, Q71Y, N72E, G73D
notes: in vitro translated
B29: 4′D8 PR4 (designed binder)
chain: B5 chain with V69L, I77Y
B30: 3F11 PR3 (designed binder)
chain: B5 chain with A70G, Q71L, N72T, G73D, E75V, I77L
notes: in vitro translated
B31: 4′B8 PR4 (designed binder)
chain: B5 chain with G73D, E75K, I77F, T78I
B32: 1′DelG9 PR4 (designed binder)
chain: B5 chain with N72S, G73D, I77M
notes: in vitro translated
B33: 1′DelH9 PR4 (designed binder)
chain: B5 chain with A70G, G73D
notes: in vitro translated
B34: 3G10 PR3 (designed binder)
chain: B5 chain with A70V, Q71H, L76I, I77L
notes: in vitro translated
B35: 4′D6 PR4 (designed binder)
chain: B5 chain with V69M, G73D, I77M
B36: 2′DelB11 PR4 (designed binder)
chain: B5 chain with A70G, G73D, I77M
notes: in vitro translated
B37: 4′G4 PR4 (designed binder)
chain: B5 chain with G73D, H74R, I77L
B38: 3′D4 PR4 (designed binder)
chain: B5 chain with V69L, Q71H, G73D, H74R
notes: in vitro translated
B39: 4′B3 PR4 (designed binder)
chain: B5 chain with V69M, G73N, H74R, I77L
B40: 4′H7 PR4 (designed binder)
chain: B5 chain with V69L, Q71H, G73D, I77L
B41: 1′DelC6 PR4 (designed binder)
chain: B5 chain with G73E, I77L
notes: in vitro translated
B42: 4′C5 PR4 (designed binder)
chain: B5 chain with V69L, A70G, Q71L, G73D
B43: 4′G12 PR4 (designed binder)
chain: B5 chain with Q71W, G73D, L76I, I77Y
B44: 3H9 PR3 (designed binder)
chain: B5 chain with A70S, N72Q, G73N, I77L
notes: in vitro translated
B45: 2′DelB10 PR4 (designed binder)
chain: B5 chain with A70T, Q71H, G73D, I77L
notes: in vitro translated
B46: 4′A5 PR4 (designed binder)
chain: B5 chain with V69L, G73D, I77L

Columns and labels:
[1] = molecular target: T1, human vascular endothelial growth factor receptor-2 Fc chimera (KDR-Fc) (human, UniProt P35968 20-764); test: radioactive equilibrium binding, 1 nM KDR-Fc, % of input
T1 construct: range 1-764; also called human VEGFR-2; not shown: human IgG1 Fc
How it was run: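 ³⁵S-Met-labelled fibronectin-based scaffold proteins, made by reticulocyte-lysate translation and Flag-purified, were held at 0.2 or 0.5 nM with 0–200 nM receptor-Fc for 1 h at 30 °C in buffer B. Complexes were captured on Protein A beads, washed and KOH-eluted. Bound fraction is eluted radioactivity as % of input, minus receptor-free background, fitted to one-site binding.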
T1 sequence (P35968 20-764 limits assumed, change not shown, form in doubt): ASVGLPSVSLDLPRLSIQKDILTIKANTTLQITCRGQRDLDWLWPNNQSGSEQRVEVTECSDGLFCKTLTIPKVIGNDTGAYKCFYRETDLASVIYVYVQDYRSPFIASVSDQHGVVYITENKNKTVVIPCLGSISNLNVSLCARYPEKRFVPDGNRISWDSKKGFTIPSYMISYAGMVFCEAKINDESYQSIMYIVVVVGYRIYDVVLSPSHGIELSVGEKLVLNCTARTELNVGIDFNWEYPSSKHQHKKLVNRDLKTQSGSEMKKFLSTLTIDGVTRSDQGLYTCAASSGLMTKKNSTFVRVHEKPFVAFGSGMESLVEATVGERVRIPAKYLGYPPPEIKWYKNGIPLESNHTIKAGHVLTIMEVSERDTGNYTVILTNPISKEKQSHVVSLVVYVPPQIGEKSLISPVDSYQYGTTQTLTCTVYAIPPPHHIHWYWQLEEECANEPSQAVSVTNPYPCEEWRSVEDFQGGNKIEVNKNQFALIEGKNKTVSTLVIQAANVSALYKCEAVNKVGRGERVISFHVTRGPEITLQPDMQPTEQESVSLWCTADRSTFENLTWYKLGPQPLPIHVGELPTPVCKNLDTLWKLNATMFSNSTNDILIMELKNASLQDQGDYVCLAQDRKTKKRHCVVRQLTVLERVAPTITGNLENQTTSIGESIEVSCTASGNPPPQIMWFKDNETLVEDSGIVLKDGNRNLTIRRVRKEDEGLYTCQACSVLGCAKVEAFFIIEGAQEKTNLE

[2] = molecular target: T2, human vascular endothelial growth factor receptor-2 Fc chimera (KDR-Fc) (human, UniProt P35968 20-764); test: radioactive equilibrium binding, 1 nM KDR-Fc
T2 construct: range 1-764; Purchased from R&D Systems; also called hKDR; human VEGF-R2-Fc; not shown: human IgG1 Fc
Protocol: To prepare ³⁵S-labeled binding proteins for analysis, mRNA was prepared as described above for RNA-protein fusion production but the linker ligation step was omitted. The mRNA was expressed using rabbit reticulocyte lysate translation kit (Ambion) in the presence of ³⁵S-labeled Met at 30° C. for 1 hour. Expressed protein was purified on M2-agarose Flag beads (Sigma) as described above. This procedure produced the encoded protein without the nucleic acid tail. In a direct binding assay, VEGF-R2-Fc fusions in concentrations ranging from 0 to 200 nM were added to a constant concentration of the purified protein (0.2 or 0.5 nM) and incubated at 30° C. for 1 hour in buffer B. The receptor-binder complexes were captured using Protein A magnetic beads for another 10 minutes at room temperature using a Kingfisher™ The beads were washed with six reaction volumes of buffer B. The protein was eluted from the beads with 100 μL of 0.1 M KOH. 50 μL of the reaction mixture and elution were dried onto a LumaPlate-96 (Packard) and the amount of ³⁵S on the plate was measured using a TopCount NXT instrument (Packard). The amount of fibronectin-based scaffold protein bound to the target was estimated as a percent of radioactivity eluted from Protein A magnetic beads compare to radioactivity in the reaction mixture. Nonspecific binding of fibronectin-based scaffold proteins to the beads was determined by measuring binding in the absence of KDR-Fc and represented less than 1-2% of the input. Specific binding was obtained through subtraction of nonspecific binding from total binding. Data was analyzed using the GraphPad Prizm software (GraphPad Software, Inc, San Diego, Calif.), fitted using a one site, non-linear binding equation.
T2 sequence (P35968 20-764 limits assumed, change not shown, form in doubt): as above

Binder | Binding to 1 nM KDR, % [1] [%] | Binding to 1 nM KDR, % [2] [%]
B1 | 22 | –
B2 | 17 | –
B3 | 16 | –
B4 | 22 | –
B5 | 14 | –
B6 | – | 10
B7 | – | 12
B8 | – | 12
B9 | 16 | –
B10 | – | 11
B11 | – | 10
B12 | 17 | –
B13 | – | 10
B14 | – | 11
B15 | – | 12
B16 | – | 13
B17 | 25 | –
B18 | 17 | –
B19 | – | 12
B20 | – | 11
B21 | 18 | –
B22 | – | 12
B23 | 29 | –

Binder | Binding to 1 nM KDR, % [1] [%] | Binding to 1 nM KDR, % [2] [%]
B24 | – | 11
B25 | – | 11
B26 | – | 12
B27 | – | 11
B28 | – | 10
B29 | 26 | –
B30 | – | 10
B31 | 20 | –
B32 | – | 10
B33 | – | 10
B34 | – | 10
B35 | 14 | –
B36 | – | 11
B37 | 19 | –
B38 | – | 12
B39 | 42 | –
B40 | 29 | –
B41 | – | 12
B42 | 27 | –
B43 | 21 | –
B44 | – | 11
B45 | – | 11
B46 | 16 | –
